T1: p58C272-464 (DNA primase regulatory subunit C-terminal domain) (human, UniProt P49643 272-464)
T1 sequence: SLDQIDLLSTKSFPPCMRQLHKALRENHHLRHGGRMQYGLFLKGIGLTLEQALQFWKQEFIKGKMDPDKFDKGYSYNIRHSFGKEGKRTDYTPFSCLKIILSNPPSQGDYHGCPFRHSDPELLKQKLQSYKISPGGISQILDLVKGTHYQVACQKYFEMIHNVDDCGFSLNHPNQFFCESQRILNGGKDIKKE

T2: p58C266-464 (DNA primase regulatory subunit C-terminal domain) (human, UniProt P49643 266-464)
T2 sequence: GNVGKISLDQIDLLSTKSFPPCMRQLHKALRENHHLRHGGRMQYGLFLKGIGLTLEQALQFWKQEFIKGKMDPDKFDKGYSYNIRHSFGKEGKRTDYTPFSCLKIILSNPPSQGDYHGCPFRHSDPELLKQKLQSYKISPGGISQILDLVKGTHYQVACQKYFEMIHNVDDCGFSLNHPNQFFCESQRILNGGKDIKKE

B1: MST/FI substrate: 8 nt RNA-primed 18 nt DNA template (DNA:RNA)
RNA: GGCUCGGA
DNA: AAACTCCGAGCCAACATA
modifications: 5'-triphosphate on RNA primer
B2: FA substrate: 12 nt RNA-primed 22 nt DNA template (DNA:RNA)
RNA: GGACCUCCAGGA
DNA: AAACTCCTGGAGGTCCAACATA
modifications: 5'-triphosphate on RNA primer (RNA printed with T as S5; written here with U)

Experiments:
[1] = molecular target: T1, p58C272-464 (DNA primase regulatory …); test: fluorescence intensity (Monolith MST instrument); 20 mM MES pH 6.5, 50 mM NaCl, 2 mM DTT (plus 0.05% Tween for FI), 50 nM substrate, 25 C; 15 min incubation at room temperature; settings: protein: recombinant; tags: 6xHis tag cleaved with H3C protease; label: 5'-Cy5 on DNA template; 8 bp RNA-DNA hybrid; template 5' overhang 4 nt and 3' overhang 6 nt
[2] = molecular target: T2, p58C266-464 (DNA primase regulatory …); test: as above; settings: protein: recombinant; tags: 6xHis tag cleaved with H3C protease; label: 5'-Cy5 on DNA template; 8 bp RNA-DNA hybrid; template 5' overhang 4 nt and 3' overhang 6 nt
[3] = molecular target: T1, p58C272-464 (DNA primase regulatory …); test: fluorescence anisotropy; 20 mM MES pH 6.5, 50 mM NaCl, 2 mM DTT (plus 0.05% Tween for FI), 50 nM substrate, 25 C; 15 min incubation at room temperature; settings: protein: recombinant; tags: 6xHis tag cleaved with H3C protease; label: 5'-6FAM on DNA template (S4 Dataset says FITC); 12 bp RNA-DNA hybrid; template 5' overhang 4 nt and 3' overhang 6 nt
[4] = molecular target: T2, p58C266-464 (DNA primase regulatory …); test: as above; settings: protein: recombinant; tags: 6xHis tag cleaved with H3C protease; label: 5'-6FAM on DNA template (S4 Dataset says FITC); 12 bp RNA-DNA hybrid; template 5' overhang 4 nt and 3' overhang 6 nt

| Binder | Kd [1] [µM] | Kd [2] [µM] | Kd [3] [µM] | Kd [4] [µM] |
| --- | --- | --- | --- | --- |
| B1 | 2.7 ± 0.3 | 3.4 ± 0.5 | – | – |
| B2 | – | – | 3.6 ± 0.1 | 2.1 ± 0.1 |
